According to PMC9601805, “Characterization of the Escherichia coli pyridoxal 5′‐phosphate homeostasis protein (YggS): Role of lysine residues in PLP binding and protein stability” (Protein Science : A Publication of the Protein Society, 2022):
Substitutions are numbered along the chain they refer to. Names may count otherwise.

B1: ΔK233/K234: E. coli YggS variant lacking the last two C-terminal residues K233 and K234 (protein)
chain: MNDIAHNLAQVRDKISAAATRCGRSPEEITLLAVSKTKPASAIAEAIDAGQRQFGENYVQEGVDKIRHFQELGVTGLEWHFIGPLQSNKSRLVAEHFDWCHTIDRLRIATRLNDQRPAELPPLNVLIQINISDENSKSGIQLAELDELAAAVAELPRLRLRGLMAIPAPESEYVRQFEVARQMAVAFAGLKTRYPHIDTLSLGMSDDMEAAIAAGSTMVRIGTAIFGARDYS
modifications: left off: His-tag, N-terminal, state not stated
B2: K36A/K38A/K233A/K234A: E. coli YggS triple lysine variant (protein)
chain: MNDIAHNLAQVRDKISAAATRCGRSPEEITLLAVSATAPASAIAEAIDAGQRQFGENYVQEGVDKIRHFQELGVTGLEWHFIGPLQSNKSRLVAEHFDWCHTIDRLRIATRLNDQRPAELPPLNVLIQINISDENSKSGIQLAELDELAAAVAELPRLRLRGLMAIPAPESEYVRQFEVARQMAVAFAGLKTRYPHIDTLSLGMSDDMEAAIAAGSTMVRIGTAIFGARDYSAA
modifications: left off: His-tag, C-terminal, state not stated
notes: E. coli YggS triple lysine variant
B3: K36A/K137A/K233A/K234A: E. coli YggS triple lysine variant (protein)
chain: B2 chain with A38K, K137A
modifications: left off: His-tag, C-terminal, state not stated
notes: as for B2
B4: K36A/K38A/K137A: E. coli YggS triple lysine variant (protein)
chain: B2 chain with K137A, A233K, A234K
modifications: left off: His-tag, C-terminal, state not stated
notes: as for B2
B5: K36A/K38A/K137A/K233A/K234A: E. coli YggS quadruple lysine variant (protein)
chain: B2 chain with K137A
modifications: left off: His-tag, C-terminal, state not stated
notes: E. coli YggS quadruple lysine variant

Key:
apo‐YggS = molecular target: T1, apo‐YggS (Escherichia coli, UniProt P67080); test: biochemical; format: binding; conditions: WT apo-YggS
T1 construct: made in house; host or cells: E. coli HMS174(DE3)
T1 sequence (P67080 whole entry): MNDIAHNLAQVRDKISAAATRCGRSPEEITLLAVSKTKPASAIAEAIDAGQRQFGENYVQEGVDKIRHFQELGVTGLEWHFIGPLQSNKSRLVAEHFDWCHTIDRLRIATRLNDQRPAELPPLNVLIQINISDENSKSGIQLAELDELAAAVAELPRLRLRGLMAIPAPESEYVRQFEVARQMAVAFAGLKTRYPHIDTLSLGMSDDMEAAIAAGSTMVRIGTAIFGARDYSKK
Description: Equilibrium binding analyses were carried out by measuring the decrease of protein intrinsic fluorescence observed upon the addition of increasing PLP concentrations to a fixed concentration of apo‐YggS (Figure 1b).
Dissociation constants were calculated from saturation curves obtained measuring the protein fluorescence emission intensity as a function of increasing PLP concentration. […] Fluorescence emission spectra were recorded from 310 to 450 nm upon excitation at 280 nm. Excitation and emission slits were set at 3 and 5 nm, respectively.

E. coli ΔyggS = test: 4dPN sensitivity assay and complementation by YggS variants in trans; format: cell-based, Escherichia coli; conditions: 20 μl of 25 mM 4dPN in central well, M9 minimal medium with 1 μM PN
Description: Bacteria were grown in Luria‐Bertani (LB; Tryptone 10 g L^− 1, Yeast extract 5 g L^− 1, NaCl 10 g L^− 1) or M9 minimal medium (Cold Spring Harbor Protocols, Cold Spring Harbor, NY) at 37°C, unless otherwise specified. Growth media were solidified with agar (16 g L^− 1; Fisher Scientific) for the preparation of plates. 4dPN toxicity assays were performed on thin (20 ml) M9 minimal medium plates containing 0.4% glucose (carbon source), ampicillin (100 μg ml^−1), 1 μM PN, and 0.02% or 0.2% arabinose when appropriate.
Wild‐type yggS was amplified by PCR with primers DH596 and DH598 from E. coli BW25113 and cloned in pBAD24 using restriction sites SphI and NcoI to give pBY291.3. The pBY291.3 plasmid and its derivatives were then used as templates with the NEB Q5 Site‐Directed Mutagenesis Kit and the primer pairs indicated in Table S4 to introduce site‐directed residue mutant constructs. All constructs were verified by sequencing and transformed into E. coli wild‐type (BW25113) and ΔyggS (VDC6594) electrocompetent cells for use in physiological studies. Plasmid transformations were performed following standard procedures and protein expression from each construct was confirmed by SDS‐PAGE and western blot analysis.
Three isolated colonies of each strain were inoculated into 5 ml LB Amp 200 μg ml^− 1 and incubated at 37°C and 200 rpm overnight. Overnight cultures were diluted 1:500 into 5 ml fresh LB Amp 200 μg ml^− 1 ± 0.02% or 0.2% arabinose and grown at 37°C, shaking. Once cultures reached midlog growth (OD600 of 0.4–0.7) samples were taken from each culture for western blot analysis (below) then cells were again incubated until stationary growth was reached (~6 hr). Cells were harvested by centrifugation then washed twice with and resuspended in 1x PBS. Optical density of washed cells was measured at 600 nm in 1 ml cuvettes (Fisher Scientific) using a BioSpec‐mini DNA/RNA/Protein analyzer (Shimadzu Biotech) and each strain was normalized to an OD600 of 0.006 in 3 ml 1x PBS. […]

[1] = PLP binding equilibrium of YggS WT and variant forms, intrinsic fluorescence change; conditions: E. coli YggS form 0.1 μM, 50 mM NaHEPES pH 7.6, 25°C, excitation 280 nm; mean ± SEM; read-out: K D (nM) of the PLP binding equilibrium
Description: Analyses took advantage of YggS intrinsic fluorescence decrease observed upon binding of PLP. Dissociation constants were calculated from saturation curves obtained measuring the protein fluorescence emission intensity as a function of increasing PLP concentration. Fluorescence emission measurements were carried out at 25°C, in 50 mM NaHEPES buffer at pH 7.6 with a FluoroMax‐3 Jobin Yvon Horiba spectrofluorometer, using a 1‐cm path length quartz cuvette. All analyzed YggS forms were used at a final subunit concentration of 0.1 μM. Fluorescence emission spectra were recorded from 310 to 450 nm upon excitation at 280 nm. Excitation and emission slits were set at 3 and 5 nm, respectively. Emission fluorescence values between 330 and 340 nm were averaged and analyzed using the following quadratic equation to obtain K D value: (1) Frel=Finf−F0×PLP+[YggS]+KD−PLP+[YggS]+KD^2−4[YggS]PLP/2/[YggS]+F0

[2] = Differential scanning fluorimetry (DSF), apparent Tm of YggS forms; format: physicochemical; conditions: for T m (°C) Apo +2 μM PLP: 2 μM protein + 2 μM (equimolar) PLP; for T m (°C) Apo + 300 μM PLP: 2 μM protein + 300 μM PLP; for T m (°C) Apo: apo-form, 2 μM protein, no PLP
Description: Differential scanning fluorimetry (DSF) assays were performed on a Real Time PCR Instrument (CFX Connect Real Time PCR system, Bio‐Rad, Hercules, CA). In a typical experiment, 2 μM WT and variant apo‐YggS forms in 50 mM NaHEPES, pH 7.5, 50 mM NaCl, and Sypro Orange (5x, Thermo Scientific) were mixed with various ligands (total volume of 25 μl) in a 96‐well PCR plate. Fluorescence was measured from 25°C to 95°C in 0.4°C/30 s steps (excitation 450–490 nm; detection 560–580 nm). All samples were run in triplicate. Denaturation profiles were analyzed as described in Nardella et al.[40]

[3] = Covalent (Schiff base) PLP binding judged by absorption spectra; conditions: ~416–420 nm band
Description: Our strategy was to start from the K36A variant and gradually add further variations so as to obtain all possible combinations of double, triple, and quadruple variants. Variations of the last two residues at the C‐terminal end of the protein, K233 and K234, were always introduced together and are therefore considered as a single K233A/K234A variation.
All spectroscopic measurements were carried out at 20°C in 20 mM NaHEPES pH 7.5. UV–visible spectra were recorded with a Hewlett‐Packard 8453 diode‐array spectrophotometer. Far‐UV (190–250 nm) and Near‐UV–visible (250–500 nm) CD spectra were measured with a Jasco 710 spectropolarimeter equipped with a DP 520 processor using 0.1‐cm (far‐UV) or 1‐cm path length quartz cuvettes and results were expressed as ellipticity [Θ]. Absorption spectra of WT and variant forms were deconvoluted into their component bands using Metzler's band‐shape analysis method.[22]

apo‐eSHMT = apo‐eSHMT (Escherichia coli, UniProt P0A825); conditions: transfer to apo-SHMT
Chain of apo‐eSHMT (P0A825 whole entry): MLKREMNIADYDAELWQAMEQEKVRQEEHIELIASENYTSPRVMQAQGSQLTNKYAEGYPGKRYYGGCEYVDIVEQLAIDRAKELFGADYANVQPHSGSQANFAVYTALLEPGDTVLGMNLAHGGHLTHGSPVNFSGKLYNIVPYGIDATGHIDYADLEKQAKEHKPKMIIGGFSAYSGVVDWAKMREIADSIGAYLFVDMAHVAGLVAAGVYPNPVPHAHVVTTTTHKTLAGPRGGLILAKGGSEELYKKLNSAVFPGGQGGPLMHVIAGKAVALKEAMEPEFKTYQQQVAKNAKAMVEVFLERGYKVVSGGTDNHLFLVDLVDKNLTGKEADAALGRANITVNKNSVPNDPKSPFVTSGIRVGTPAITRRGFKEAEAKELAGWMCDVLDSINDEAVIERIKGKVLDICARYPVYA
Description: We set up a novel in vitro discontinuous assay in which PLP transfer from holo‐YggS to the apo‐form of eSHMT could be followed (see Section 4 for details). In this assay, the increase in SHMT activity is measured as PLP dissociates from holo‐YggS and binds to apo‐SHMT, forming the catalytically active holo‐SHMT. […] The binding kinetics of free PLP to either apo‐YggS or apo‐SHMT was measured by manually mixing 20 μM free PLP with 20 μM of protein, observing the formation of the internal aldimine at 420 nm.
WT Holo‐YggS (20 μM with respect to PLP) was mixed with 20 μM apo‐eSHMT in 50 mM NaHEPES buffer at pH 7.6.

Row | Molecule | change in fluorescence emission attributable to binding (apo‐YggS) | 4dPN sensitivity (ring of growth inhibition) (E. coli ΔyggS) | Kd [1] [nM] | T m (°C) Apo +2 μM PLP [2] [°C] | T m (°C) Apo + 300 μM PLP [2] [°C] | T m (°C) Apo [2] [°C] | capability to bind PLP covalently as a Schiff base [3] | PLP transfer kinetics compared with WT YggS (apo‐eSHMT)
1 | Cc1ncc(CO)c(C)c1O [4dPN, 4‐deoxypyridoxine, reference compound] | could only be detected with PL and PNP | clear 4dPN sensitivity phenotype |  |  |  |  |  | 
2 | Cc1ncc(COP(=O)(O)O)c(C)c1O [4dPNP] | could only be detected with PL and PNP |  |  |  |  |  |  | 
3 | Cc1ncc(CO)c(CO)c1O [PN, pyridoxine] | could only be detected with PL and PNP |  |  |  |  |  |  | 
4 | B1 |  |  | 2.8 ± 0.7 | 73.1 ± 0.3 | 84.0 ± 0.4 | 61.4 ± 0.8 | able to bind PLP as a Schiff base | 
5 | B2 |  |  |  | 68.9 ± 0.1 | 69.6 ± 0.1 | 68.8 ± 0.1 | lost the capability to bind PLP covalently | 
6 | B3 |  |  |  | 64.7 ± 0.1 | 66.0 ± 0.1 | 64.6 ± 0.1 |  | 
7 | B4 |  |  | 43 ± 19 | 69.4 ± 0.1 | 75.2 ± 1.2 | 68.9 ± 0.2 |  | faster and much more extensive transfer of PLP
8 | B5 |  |  |  | 68.8 ± 0.1 | 69.1 ± 0.3 | 68.7 ± 0.1 | lost the capability to bind PLP covalently | 
